The conditions of data set [1]: fluorescein alone, single i.v. injection, analysis of literature data (Chahal et al.); cited from earlier work.
In data set [2] the target is T1, Rabbit serum albumin (Rabbit, UniProt P49065 25-608).
T1 construct: also called RabSA; RabSa
Put plainly: biolayer interferometry, cross reactivity on albumins of different species; legend: '-' symbol refers to an absence of detectable binding. (In general: In BLI a coated tip is dipped into the sample, and binding shifts an interference pattern.)

The target in data set [3] is T2, Rat serum albumin (Rat, UniProt P02770 25-608).
T2 construct: also called RSA
T2 sequence (P02770 25-608 limits assumed): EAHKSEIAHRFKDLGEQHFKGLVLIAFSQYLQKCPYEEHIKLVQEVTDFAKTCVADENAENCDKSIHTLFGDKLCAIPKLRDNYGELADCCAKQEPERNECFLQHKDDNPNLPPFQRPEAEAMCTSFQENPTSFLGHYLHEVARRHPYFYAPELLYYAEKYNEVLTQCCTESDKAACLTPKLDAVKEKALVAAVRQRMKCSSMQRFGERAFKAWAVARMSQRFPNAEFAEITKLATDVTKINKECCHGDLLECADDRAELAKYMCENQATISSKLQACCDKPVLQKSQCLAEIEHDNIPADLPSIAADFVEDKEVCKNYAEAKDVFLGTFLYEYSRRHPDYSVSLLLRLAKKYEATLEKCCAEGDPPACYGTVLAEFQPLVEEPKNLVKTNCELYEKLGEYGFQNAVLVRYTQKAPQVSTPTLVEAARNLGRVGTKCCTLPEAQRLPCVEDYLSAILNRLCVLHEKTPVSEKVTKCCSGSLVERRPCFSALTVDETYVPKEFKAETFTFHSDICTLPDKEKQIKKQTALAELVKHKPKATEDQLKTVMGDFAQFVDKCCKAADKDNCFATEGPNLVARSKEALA
Put plainly: biolayer interferometry, cross reactivity pattern (graded strength of binding).

The target of data set [4] is T3, Cynomolgus monkey serum albumin (Cynomolgus monkey, UniProt A2V9Z4 25-608).
T3 construct: also called CSA
T3 sequence (A2V9Z4 25-608 limits assumed): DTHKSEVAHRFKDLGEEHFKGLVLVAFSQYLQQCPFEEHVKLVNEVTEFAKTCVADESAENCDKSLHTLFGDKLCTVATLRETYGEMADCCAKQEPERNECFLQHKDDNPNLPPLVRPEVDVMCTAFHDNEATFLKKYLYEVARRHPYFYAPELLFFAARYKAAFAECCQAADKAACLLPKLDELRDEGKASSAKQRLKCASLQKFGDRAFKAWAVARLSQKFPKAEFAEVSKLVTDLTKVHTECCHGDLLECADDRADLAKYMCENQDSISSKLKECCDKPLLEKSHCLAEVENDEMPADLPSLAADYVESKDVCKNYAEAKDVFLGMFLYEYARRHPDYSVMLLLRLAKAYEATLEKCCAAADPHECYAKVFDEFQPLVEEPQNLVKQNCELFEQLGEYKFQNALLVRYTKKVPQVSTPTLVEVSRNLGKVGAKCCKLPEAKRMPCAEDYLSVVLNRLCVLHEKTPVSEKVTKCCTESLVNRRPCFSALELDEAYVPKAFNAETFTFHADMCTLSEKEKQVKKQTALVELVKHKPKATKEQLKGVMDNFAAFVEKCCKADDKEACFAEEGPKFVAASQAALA
The data set is described as above.

Data set [5] addresses T4, Mouse serum albumin (Mouse, UniProt P07724 25-608).
T4 construct: also called MSA
The description is as above.

Data set [6] addresses T5, human serum albumin Domain I (aa1-197) (human, UniProt P02768 25-221).
T5 construct: range 1-197; Domain III ends at 585, so they probably count on mature albumin (585 residues) and not on the precursor entry
Put plainly: biolayer interferometry, His-tagged F06 on Ni-NTA biosensors, albumin domain at 250 nM, response at 180 s. From the text: (§1) The albumin is described as having three domains, dubbed domain I, II and III. Interaction of the albumin with the FcRn receptor involves domain I and III. Domain I (aa1-197), domain II (aa189-385), and domain III (aa381-585) and Domain I-II (aa1-385) were obtained from Albumin Bioscience. Interaction of the anti-albumin Nanofitins with the different domains was investigated by biolayer interferometry according to the following procedure. […] The sensors were then allowed to equilibrate for 60 sec in protein free blocking buffer (Thermo Scientific) supplemented with 0.002% of tween20.

Data set [7] addresses T6, human serum albumin domain III (aa381-585) (human, UniProt P02768 405-609).
T6 construct: range 381-585; The residue numbers probably count on mature albumin (585 residues)
Described as above.
Text: as §1

Data set [8] deals with T7, human serum albumin (human, UniProt P02768 25-609, biotinylated (sites not given) in the biolayer interferometry of Example 1).
T7 construct: Biotinylated HSA immobilised on streptavidin biosensors; also called HSA
Put plainly: biolayer interferometry (octet red96); biotinylated HSA on streptavidin biosensors, Nanofitin 15.6-1000 nM.

Consider 3 molecules from patent US20240124531A1, “COMPOUNDS AND METHODS FOR EXTENDING HALF LIFE OF BIOMOLECULES” (AFFILOGIC, priority 2021, published 2024).

In general, Kd refers to a measure of binding affinity in units of concentration. The term koff denotes the first-order rate constant of dissociation.

T1 sequence (P49065 25-608 limits assumed): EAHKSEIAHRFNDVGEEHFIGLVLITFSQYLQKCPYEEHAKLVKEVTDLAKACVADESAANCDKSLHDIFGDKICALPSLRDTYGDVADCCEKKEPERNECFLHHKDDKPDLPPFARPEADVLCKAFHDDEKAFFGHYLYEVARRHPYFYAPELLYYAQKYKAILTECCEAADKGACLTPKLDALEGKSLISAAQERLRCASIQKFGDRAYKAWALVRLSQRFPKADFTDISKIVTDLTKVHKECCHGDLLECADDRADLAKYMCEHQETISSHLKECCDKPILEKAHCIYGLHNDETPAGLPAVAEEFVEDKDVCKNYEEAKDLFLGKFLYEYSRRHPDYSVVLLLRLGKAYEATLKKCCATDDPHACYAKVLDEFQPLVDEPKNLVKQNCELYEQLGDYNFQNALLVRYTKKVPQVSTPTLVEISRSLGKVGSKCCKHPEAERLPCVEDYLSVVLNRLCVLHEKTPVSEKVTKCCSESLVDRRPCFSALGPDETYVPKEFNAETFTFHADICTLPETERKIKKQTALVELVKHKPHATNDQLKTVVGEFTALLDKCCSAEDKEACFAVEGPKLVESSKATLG
T4 sequence (P07724 25-608 limits assumed): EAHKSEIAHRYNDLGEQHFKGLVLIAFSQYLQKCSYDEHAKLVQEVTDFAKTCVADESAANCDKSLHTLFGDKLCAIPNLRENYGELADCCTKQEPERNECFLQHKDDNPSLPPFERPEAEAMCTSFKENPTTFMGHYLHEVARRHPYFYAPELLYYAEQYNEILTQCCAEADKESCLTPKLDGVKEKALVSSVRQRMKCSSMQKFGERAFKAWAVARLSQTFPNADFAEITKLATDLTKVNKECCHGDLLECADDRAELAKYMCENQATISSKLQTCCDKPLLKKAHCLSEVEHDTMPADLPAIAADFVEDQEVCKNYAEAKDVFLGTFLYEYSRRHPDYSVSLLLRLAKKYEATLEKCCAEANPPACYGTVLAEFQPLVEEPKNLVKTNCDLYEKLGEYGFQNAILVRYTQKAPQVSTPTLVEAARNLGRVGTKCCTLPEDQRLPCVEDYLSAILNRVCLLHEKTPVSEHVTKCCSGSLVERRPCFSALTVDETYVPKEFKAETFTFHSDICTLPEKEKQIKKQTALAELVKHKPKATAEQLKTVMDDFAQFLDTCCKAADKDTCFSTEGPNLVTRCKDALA

As to `O=C1OC2(c3ccc(O)cc3Oc3cc(O)ccc32)c2ccccc21` [Fluorescein], the “t1/2 in mouse serum” value in data set [1] is given as “about 8 min”.

B1: Nanofitin B11 (designed binder)
chain: VKVKFWPRGEEKVVDTSKIAWVLRADKTVMFKYDDNGKKGYGVVLEKDAPKELLDMLARAEREK
notes: Variant of Sac7d; also called anti-albumin Nanofitin
Turning to B1, the binding result in data set [2] is listed as “no binding”; in data set [3], “binds”; in data set [4] it was “binds”; in data set [5] it was “binds”.

B2: Nanofitin F06 (designed binder)
chain: VKVKFVFSGEEKEVETSKIKWVLRWGKAVGFKYDDQGKIGYGFVAEKDAPKELLDMLARAEREK
notes: also called anti-albumin Nanofitin
In the case of B2, the results for the binding result in data set [2], in data set [6] and in data set [7] were “no binding”, “no binding (tested: 250 nM)” and “no binding (tested: 250 nM)”, respectively. Besides, the Kd in data set [8] was 8.38 nM. This molecule returned a koff in data set [8] of 0.000304 s⁻¹.
